Results on two substances are retold here after patent US20250188186A1.

The target of assay [1] is GST-tagged human FcRn-β2m (human) (UniProt P55899). The experiment in a line: ELISA, antibody immobilized, FcRn titrated (the concentration is that of FcRn), anti-FLAG-HRP, pH 6.0 [pH 6.0].
Assay [2] addresses human FcγRIIIa F158 ectodomain, N-terminal AVI and C-terminal His tags (human) (UniProt P08637). The experiment in a line: BLI, antibody on FAB2G tips, FcγRIIIa F158 in solution, pH 7.4, steady-state Kd,SS (Langmuir fit). Background: In BLI a coated tip is dipped into the sample, and binding shifts an interference pattern.
In assay [3] the target is human FcγRIIb ectodomain, N-terminal AVI and C-terminal His tags (human) (UniProt P31994). The experiment in a line: BLI, antibody on FAB2G tips, FcγRIIb in solution, pH 6.5, steady-state Kd,SS.
Sequence of human FcγRIIb ectodomain, N-terminal AVI and C-terminal His tags (human) (P31994 43-217): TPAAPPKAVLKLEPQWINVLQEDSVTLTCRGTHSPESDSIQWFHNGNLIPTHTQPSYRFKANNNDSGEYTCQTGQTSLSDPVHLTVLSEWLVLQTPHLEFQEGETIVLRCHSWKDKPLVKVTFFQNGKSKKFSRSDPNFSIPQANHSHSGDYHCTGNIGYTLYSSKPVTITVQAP
For assay [4], the target named is human FcγRIIa H131 ectodomain, N-terminal AVI and C-terminal His tags (human) (UniProt P12318). The experiment in a line: BLI, antibody on FAB2G tips, FcγRIIa H131 in solution, pH 6.5, steady-state Kd,SS.
Sequence of human FcγRIIa H131 ectodomain, N-terminal AVI and C-terminal His tags (human) (P12318 34-217): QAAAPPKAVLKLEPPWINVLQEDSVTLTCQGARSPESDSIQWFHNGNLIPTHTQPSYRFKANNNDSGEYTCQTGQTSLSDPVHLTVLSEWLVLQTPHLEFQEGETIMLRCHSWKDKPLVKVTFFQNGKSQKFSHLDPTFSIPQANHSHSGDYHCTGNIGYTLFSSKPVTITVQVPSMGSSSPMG
The target in assay [5] is FcγRIIIa allele V158 on NK-92 effector cells (human) (UniProt P08637). The experiment in a line: cell-based or functional assay.
Sequence of FcγRIIIa allele V158 on NK-92 effector cells (human) (P08637 17-254 F176V): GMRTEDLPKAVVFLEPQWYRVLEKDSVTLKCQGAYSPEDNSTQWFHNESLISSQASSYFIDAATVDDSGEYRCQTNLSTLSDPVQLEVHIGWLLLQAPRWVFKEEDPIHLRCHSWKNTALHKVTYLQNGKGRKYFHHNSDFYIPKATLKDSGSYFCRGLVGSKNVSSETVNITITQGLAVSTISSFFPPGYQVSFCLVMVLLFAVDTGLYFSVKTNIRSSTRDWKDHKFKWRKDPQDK
Assay [6] addresses human FcγRIIa R131 ectodomain, N-terminal AVI and C-terminal His tags (human) (UniProt P12318). Briefly: BLI, antibody on FAB2G tips, FcγRIIa R131 in solution, pH 6.5, steady-state Kd,SS.
Assay [7] concerns the target human FcγRIIb ectodomain, N-terminal AVI and C-terminal His tags (human) (UniProt P31994). The experiment in a line: BLI, antibody on FAB2G tips, FcγRIIb in solution, pH 7.4, steady-state Kd,SS.
Assay [8] addresses human FcγRIIIa F158 ectodomain, N-terminal AVI and C-terminal His tags (human) (UniProt P08637). The experiment in a line: BLI, antibody on FAB2G tips, FcγRIIIa F158 in solution, pH 7.4, kinetic Kd.
For assay [9] the target is unchanged. Briefly: BLI, antibody on FAB2G tips, FcγRIIIa F158 in solution, pH 6.5, steady-state Kd,SS (Langmuir fit).
For assay [10] the target is unchanged. The experiment in a line: BLI, antibody on FAB2G tips, FcγRIIIa F158 in solution, pH 6.5, kinetic Kd.
In assay [11] the target is human FcγRIIa H131 ectodomain, N-terminal AVI and C-terminal His tags (human) (UniProt P12318). The experiment in a line: BLI, antibody on FAB2G tips, FcγRIIa H131 in solution, pH 7.4, steady-state Kd,SS.
Assay [12] addresses human FcγRIIa R131 ectodomain, N-terminal AVI and C-terminal His tags (human) (UniProt P12318). The experiment in a line: BLI, antibody on FAB2G tips, FcγRIIa R131 in solution, pH 7.4, steady-state Kd,SS.

Sequence of human FcγRIIIa F158 ectodomain, N-terminal AVI and C-terminal His tags (human) (P08637 17-208): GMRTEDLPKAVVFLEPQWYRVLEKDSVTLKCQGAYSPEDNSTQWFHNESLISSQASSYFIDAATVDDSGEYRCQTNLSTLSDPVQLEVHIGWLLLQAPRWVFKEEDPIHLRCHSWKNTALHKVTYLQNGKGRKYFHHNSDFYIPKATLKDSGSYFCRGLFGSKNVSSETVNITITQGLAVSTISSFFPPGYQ
Sequence of human FcγRIIa R131 ectodomain, N-terminal AVI and C-terminal His tags (human) (P12318 34-217 H167R): as the sequence (P12318 34-217) above, with H134R counted along it
Sequence of GST-tagged human FcRn-β2m (human) (P55899 24-297 limits assumed, chain 1 of 2): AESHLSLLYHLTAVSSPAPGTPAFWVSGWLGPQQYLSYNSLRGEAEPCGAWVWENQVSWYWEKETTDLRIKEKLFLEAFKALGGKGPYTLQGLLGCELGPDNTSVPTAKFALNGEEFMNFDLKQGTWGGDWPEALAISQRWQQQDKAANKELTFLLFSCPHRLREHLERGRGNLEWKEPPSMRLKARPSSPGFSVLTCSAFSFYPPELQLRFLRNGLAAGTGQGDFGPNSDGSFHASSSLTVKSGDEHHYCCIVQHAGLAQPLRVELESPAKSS
Sequence of GST-tagged human FcRn-β2m (human) (P61769 21-119 limits assumed, chain 2 of 2, further chain): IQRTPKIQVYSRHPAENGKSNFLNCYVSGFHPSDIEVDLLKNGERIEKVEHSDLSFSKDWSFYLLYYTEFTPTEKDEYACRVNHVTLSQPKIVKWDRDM

As to “hu4D5 antibody with M252Y/S254T/T256E (YTE) Fc”, the EC50 (read off the curve) (usually the midpoint of the concentration-response curve) in assay [1] was determined as 0.01 mg/L.
Consider “hu4D5 antibody with acid-Fc (S267E, H268D, Y296H)”, for which the dissociation constant Kd (usually the equilibrium constant for the complex coming apart) stood at 1.09 µM in [2]; 0.112 µM in assay [3]; 0.331 µM in assay [4]; 0.0371 µM in [6]; 0.109 µM in [7]; 0.909 µM in assay [8]. For the same substance, the equilibrium dissociation constant (Kd) is 0.603 µM in assay [9], 0.538 µM in assay [10], 0.497 µM in [11] and 0.0371 µM in assay [12]. Further, the ADCC EC50, SKBR3 target cells, NK-92 (V158) effector cells, pH 6.5 in assay [5] was 121 ng/mL. In assay [5], the ADCC EC50, SKBR3 target cells, NK-92 (V158) effector cells, pH 7.4 stood at 2310 ng/mL. For the same substance, in assay [5], the ADCC: lysis of calcein-loaded SKOV3 target cells, 50 ng/mL antibody, E:T 10:1, 4 h, pH 6.5 is 47.6%. Moreover, the ADCC: lysis of calcein-loaded SKOV3 target cells, 50 ng/mL antibody, E:T 10:1, 4 h, pH 7.4 in [5] is 19.5%.
